Laboratory results taken from the nanobody polyreactivity screen of Harvey et al. (2022).

Assay: yeast display, Sf9 membrane polyspecificity reagent, FACS + sequencing; frameworks hold sequencing errors
How it was run: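 Galactose induction of a Saccharomyces cerevisiae BJ5465 synthetic nanobody display library ran 36–48 hours. The cells were then stained for 1 hour at 4 °C with 10% biotinylated, detergent-solubilized Sf9 membrane reagent, pulled down on streptavidin microbeads and FACS-sorted into low and high (top ~1%) gates on expression and reagent-binding fluorescence. Labels for polyreactivity follow the gate of origin.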

| Sequence | polyreactivity (PSR sort gate) |
| --- | --- |
| QVQLVESGGGLVQAGGSLRLSCAASGRTFQYNAMGWYRQAPGKERELVAVISRGGRTNYADSVKGRFTISRDNAKNTVYLQMNSLKPEDTAVYYCAADWYTPQGVGLDYWGQGTQVTVSS | low polyreactivity |
| QVQLVESGGGLVQAGGSLRLSCAASGINFGRNAMGWYSQAPGKERELVAAITRRGGRTNYADSVKGRFTISRDNAKNTVYLQMNSLKPEDNAVYYCNAHGRPAEAGYDYWGQATQVTVSS | high polyreactivity |
| QVQLQESGGGLVQAGGSLRQSCASSGYIFPYNSMGWYRQAPGKERGLVACIAAGTTTNYADSVKGRFTISRDNAKNTVYLQMNSLKPEDAAVYYCAALNAFNTGHWYWGQGTQVTVSS | low polyreactivity |
| QVQLVESGGGLVQAGGSLRLSCAASGIIFWDYAMGWYRQAPGKEREFVAAINTSGGTTTYADSVKGRFTISRDNAKNTVYLQMNSLKPEDTAVYNCAADPWGYYSYAYYYWGQGTQVTVSS | low polyreactivity |
| QVQLVESGGGLVQAGVSLRLSCAASGGILYWYAMGWSRQAPGKERELVAAIDWTGGSTYYADSVKGRFTISRDNAKNTVYLQMNSLKPEDTAVYYCAADSYWGSGVVPGYDYWGQGTQVTVSS | low polyreactivity |
| QVQLVESGRGLVQAGGSLRLSCAASGSICGYYTMGWYRQAPGKERELVAAITSGGSTNYADSVKGRFTISRDNAKNTVYLQMNSLKPEDTAVYYCAKVSYYPWRYDYWGQGTQVTVSS | low polyreactivity |
| QVQLVESGGGVVQAGGSLRLSCAASGRIFLTNALGWYRQAPGKVREVVADISRGGSTYADSVKGRFTISRDTAKNTVYLQMTSLKPEDTAVDYCAADEYSPGDSRTRYAYWGQGTQVPVSS | low polyreactivity |
| QVQLVESGGGLVQAGGSLRLSCAASGSTFCDNAMGWYRQAPGNERELVAAISMSGGRTYYADSVKGRFTISRDNAKNTVYLQMNSLKPEDTAVYYCAAVGNRRYYFGYDYWGQGSQVTVSS | high polyreactivity |
| QVQLVESGGGLVQAGGSLRLSCAASGRIFGSYAMGWYRPAPGKERELVAAINRSGGSTRYADSVKGRFTISRDNAKNTVYLQMNSLKPEDTAVYYCAAPSYARYYAYDSWGQGTQVTVSS | high polyreactivity |
| QVQLVESWGGLVQAGGSLRLRFAASVRTFVSNAMGWYRQAPGKERELVARITGSGGNTYYADSVKGRFTISRDNEKNTVYLQMNSLKPEDTAVYYCNSDVFRKFGSPSGYKSHRYDYWGQGTQVTVSS | low polyreactivity |
| QVQLVESGGRLVQAGGSLRLSCAASGFTFWNYAMGWYRQAPGKERELVAAISRSGTSTYYADSVKGRFTISRDYAKNTVYLQMNSLKPEDTAVYYCNVLRVKSITYLMDYWGQGTQVTVSS | high polyreactivity |
| QVQLVESGGGLVQAGGSLRLSCAASGSIFDIYAMGGYRQAPGKERELVAGITRDDGSTYYADSVKGRFTISRDNAKNTVYLQMNSLNPEDTAVYYCNRPGDYPDYVPGYYYWGQGTQVTVSS | low polyreactivity |
| QVQLVESGGGLVQAGGSLRLSCAASGRIFSWYTMGRYRQAPGKERELVADITYSGGSTYYADSVKGRFTISRDNAKNTVYLQMNSLKPEDTAVYYCNADPRWYHFEYGYWGQGTQVTVSS | high polyreactivity |
| QVQHVESGGGLVQAGGSLRLSCAASGRISLSNAMGWYRQAPGKEREFVAAITKRSDRTYYADSVKGRFTISRDNAKNTVYLQMNSLKPEDTAVYYCAAKPLFGTRDDYWGLGTQVTVSS | low polyreactivity |
| QVQLVESGGGLVQAGGSLRLSCAASGRIFTRYAMGWNRQAPGKETELGAAITASGGRTYYADSVKGRFTISRDNAKNTVYLQMNSLKPEDTAVYYCAATYHRYYETQDSYDYWGQGTQLTVSS | high polyreactivity |
| QVQLVESGGGLVQAGGSLRLSCAASGSTFATYVMGWYRQAPGKETELVAAISSSGSTNYADSVKGRFTISRDNAKNTVYLQMNSLKPEYTAVYYCAARYYRLTDRPYNPIVSYGYWGQGTQVTVSS | high polyreactivity |

| Sequence | polyreactivity (PSR sort gate) |
| --- | --- |
| QVQLVESGGGLFQAGGSLRLSCAASGNIFAYNAMGWYRQAPGKERELVASIRYSGGSTYYADSVKGRFTISRDNAKNTVYLQINSLKPEDTAVYYCAKRGYSSYRTYNYWGQGTQVTVSS | high polyreactivity |
| QVQLVESGGGLVQAGGSLRLSCAASGRIFVYNAMGWYRQAPGKERELVASITSSGGSTYYADSVKGRFTISRDNAKNTVYLQMNSLKPEDTAVYYCAADVQPDTRSTPEMDYWGQGTQVTVSS | low polyreactivity |
| QVQLVESGGGLVQAGGSLRLSCAASGSTFTTNAMGWYIQAPGKERELVATISGGSTNYADSVKGRFTISRDNAKNTVYLQMNSLKPEDTAVYYCNTDGEVTYDYWGQGTQVTVSS | low polyreactivity |
| QVQLVESGGGLVQAGGSLRLSCAASGFIFYYNTMGWYRQATGKESELVDSITWSGDTTYYADSVKGRFTISRDNAKKTVYLQMNSLKPEDTAVYYCAAVHYYPYRRYDYWGQGTQVTVSS | low polyreactivity |
| QVQLVESGGGLVQAGGSLRLSCAASGRIFYYNAMGWYRQAPGKERELVAAITYSGTSTYYADSVKGRFTISRDNAKNTVYLQMNSLKPEDSAVYYCAVDSTDQAPPTYDYWGQGTQVTVSS | low polyreactivity |
| QVQLVESGGGLVQAGGSLRLSCAASGSTFGYYAMGWYRQAPGKERELVAVIRRGGSTNYADSVKGRFTISRENAKNTVYLQMHSLKPEDTAVYYCAKSQRGTVYSYYYWGQGSQVTVSS | high polyreactivity |
| QVQLVESGGGLVQAGGSLRLSCAASGFTFFYNAMGWYRQAPGKEREFVAAISGRGGTTYYADSVKGRFTISRDNAKNTVYLQMNSLKPEDTAVYYCAARSVSTLRYTSRKLRYDYWGQGTQVTVSS | high polyreactivity |
| QVQLVESGGGLVQAGGSLRLSCAASGSTFGRYAMGWYRQAPGKERELVAAISARGGSTYYADSVKGRFTISRDNAKNTVYLQMNSLKPEDTAVYYCNVDYLLHGGRFDYWGQGTQVTVSS | high polyreactivity |
| QVQLVESGGGLVQARGSLRLSCAASGSTFSYNDMGWYRQAPGKERDLVADINVSVGRTYYADSVKGRFTISRDNAKNTVFLQMNSLKPEDTAVYYCNATLYTITSYVYAYDYWGQGTQVTVSS | low polyreactivity |
| QVQLVESGGGLVQAGGSLRLSCGASGRTFGRYAMGWYRQAPGKERELVDAITWSGGSTYYADSVKGRFTISRDNAKNTVYLQMNSLKPEDTAVYYCAASGYPIYHDDYWGQGTQVTVSS | low polyreactivity |
| QVQLVESGGGLVQAGGSLRLSSAPSGRIFDHYAMGWYRQAHGKERELGAAITRSGGITYYADSVKGRFTISRDNAKNTVYLQMNSLKPEDTAVYYCAALSYRYTDKFDYWGQGTQVTVSS | low polyreactivity |
| QVQLVESGGCLVKAGGSLRLSCAASGRIFLTNAIGWYRQAPGKESELVADISRAGSTYADSVKGRFTISRDNAKNTVYLQMNSLKPEDTAVYYCSADEYSPGDSRTRYDYWGQGTQVTVSS | low polyreactivity |
| QVQLVESGGGLVQAGGSLRLSCAASGSIFDYYAMGWYRQAPGKERELVAAISWSGGSTYYADSVKGRFTISRDNAKNTVYLQMNSLKPEDTAVYYCAAEYYGGELDYWGQGTQVTVSS | low polyreactivity |
| QVQLVESGGGLVQAGGSLRLSCAASGRIFVINAMVWYRQAPGKERELVAGITSSGNTNYADSVKGRFTISRDNAKNTVYLQMNSLNPEDTAVYYCNAQVYLTWLTYWLYYPPNDYWGQGTQVTVSS | low polyreactivity |
| QVQLVESGGGLVQAGGSLRLSCAASGSTFQFNTMGWYRQAPGKERELDAAITYSGGSTYYADSVKGRFTISRDNAKNTVYLQMNSQKPEDTAVYYCAADIITYDYPSYDGYIRYPYYYWGQGTQVTVTS | low polyreactivity |
